# Experimental data taken from paper PMC4072508, “Genome-Wide Prediction and Validation of Peptides That Bind Human Prosurvival Bcl-2 Proteins” (PLoS Computational Biology, 2014).
# Target: Bcl-xL, Q07817
# Test: peptide SPOT array, c-Myc-tagged receptor at 1 uM or 100 nM, anti-c-Myc-Cy3
# Sequence of Bcl-xL, Q07817 (Q07817 1-209): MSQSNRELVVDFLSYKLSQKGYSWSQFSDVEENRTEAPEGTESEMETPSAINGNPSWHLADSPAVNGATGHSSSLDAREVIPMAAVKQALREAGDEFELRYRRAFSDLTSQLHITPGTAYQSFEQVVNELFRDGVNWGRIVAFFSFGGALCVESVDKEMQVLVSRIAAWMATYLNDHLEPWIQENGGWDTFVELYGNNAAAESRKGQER
row,SPOT signal as a fraction of Bim BH3's signal on the same receptor and array,Binder
1,0.21,LHQAKDFGNYLFNFASAATKKITESV [SYAP1]
2,0.04,TCRISESVKKLMELAYQTLLEATTSS [ZW10]
3,0.02,NVGCQQDSEELLKLATSISETLEEKP [UBA6]
4,0.06,RRRLLLASKELHQVAHDLDDELAWVQ [SPTBN4]
5,0.04,REEIRKVVQSLEQTAREILTLLQGVH [TSN]
6,0.42,NRKGEKNGKGLRHFLMKVCEKVQRKG [TFDP1]
7,0.03,LRQMQECAKRIAKVSAEAKLEIDEET [SKIV2L2]
8,0.02,GELAQVSGLEMRKWLDELFIIIMDML
9,0.03,LHNLVKAAQSLDEMSQTITDLLSEQK [RB1CC1]
10,0.02,TCELGEFVKNIDQVSSEVLEGWPDSY [TLR1]
11,0.84,VIKQRRLPDQLSKLLDRIQLSGRYYL
12,0.09,FEKLRMIAKEIRHVLRMASVNMDPAL
13,0.1,TREAQKMAQLLVVLGKIINMKIKLFM [UGGT2]
14,0.02,GELAQVSGLEDRKWVDELFIIIMDML
15,0.02,EEIIHKLAMQLRHILDNIDHRMVRED [PXT1]
16,0.03,QEELQDWVKKIREVAQTADARLTEGK [PLCG1]
17,0.13,FEKLRMIAKEDRHVGRMASVNMDPAL

# Second part, the binder before the results:
row,Binder,SPOT signal as a fraction of Bim BH3's signal on the same receptor and array
1,DFMGRTFAKPLVKMLDEAYCPPRFPP [OTOF],0.17
2,LQIIPTLCHLLRALSDDGVSDLEDPT [DFNA5],0.03
3,MGVLAAAARCDVRGADRMSKWTSKRG [MRPL41],0.56
4,VYILRKAARRLAQVSRAAGVRVGLLS,0.76
5,PFDCRDYAVVDRKYADKIYSISMKHP [FOLH1],0.45
6,LREVRESIRFDRQVGRDWVQRRREAL [CYP46A1],1.14
7,KTALEKYHDGIEKAAEDSYAKIDEKT [NUF2],0.02
8,GFQVLNAIENLDDNAQRYDLDGLEKA [C9orf167],0.03
9,PKIYEGAARKLNVSSDTVQHGVEGLT [COMMD2],0.03
10,AHKARALARLDRQTALAAFSDFKRLQ [FAM43B],1.22
11,SSLSDGLPVHLANILDELTQKKKMFK [AGBL2],0.1
12,HSEITPYATDLAQTSEKLIPHLHKLP [CCDC129],0.02
13,SQDFSELSTQLTGVARDLQEEMLPGS [MON1A],0.03
14,RTNNYQLSDELRKNLVELTSLRQKVA [GRIPAP1],0.52
15,KYDPSKYCHNLKKILEDFSNTIPISS [NOL8],0.28
16,DNHKKKTVKMDEYLGKDVLHGVFNYL,0.11
17,VYILRKAARRDAQVSRAAGVRVGLLS,0.94
18,PFGLQGNSEYLIEFSRNLGKSSEHLL [CGNL1],0.03
19,GKDHPDVAKQLNNLALLCQNQGKYEE [KLC1],0.02

row,Binder,SPOT signal as a fraction of Bim BH3's signal on the same receptor and array
1,AYRGRGIAKHLAKALLDFVVEEDLKA [C17orf103],0.17
2,EVDVGKLVSRLQDGGTKITPKATNGP [OPHN1],0.02
3,EVNMSLSGRYLEELSQRYRKQMEEMQ [C1orf9],0.03
4,FQEAKQFGQKLQDLAEHSDPEVRDKV [ARMCX5],0.02
5,KAIFDRLCKQLEKIGQQVDREPGDVA [ORC6L],0.04
6,IKKSVTKGEMDKIVGKRFREHFPEIL [MAGEB2],0.4
7,NPIGLYSAETLREMAQMYQMSLRGKA [LDB3],0.3
8,DISLSNSGFKDVNFGCDYHQYRDKFS [PION],0.03
9,GAQHSTMTSTDRRLGEDIFKGVVTKG,0.03
10,DTIFHRAAVRDRDLGGAILRHARRQA [BRPF3],1.5
11,EARVLEEASRLEEEAQQTRLQLQQRL [EVC],0.02
12,DISALTASNLLKKYLEKYSGILEGPV [FIGN],0.13
13,YEQAKNISQDLEKQAARVHEEAKRAG [LAMC1],0.03
14,KFELEQNIKELNTLADQVDTTHELLT [APOL5],0.02
15,GAQHSTMTSTLRRLLEDIFKGVVTKG,0.19
16,DNHKKKTVKMLEYLLKDVLHGVFNYL,0.24
17,CLSCDLCGCRDGEVGRRLYYKLGRKL [LMO2],1.08
18,NESLTDTARVLSSMADAVLARVYKQS [OTC],0.03
19,PHQFDGVPDKDIQAAYQVKYNSKKMK [EVI5],0.58
